The results in this text go back to patent publication US20240003871A1, “IPSC-DERIVED ASTROCYTES AND METHODS OF USE THEREOF” (FUJIFILM Cellular Dynamics, Inc., priority 2022, published 2024).

The test system of this experiment is Astrocytes. The experiment can be described thus: Luminex assay of proteins secreted by astrocytes after cytokine stimulation. It is filed as cell-based, human. The note with it: stimulation in basal medium for 24 hours; average of four lots. The method, then:
FIGS. 8A-8J: Astrocytes from four lots were thawed and cultured for 7 days in Astro 3 media, before stimulation in basal medium for 24 hours. Supernatant was collected and assayed using a custom Luminex assay from R&D on the FLEXMAP 3D instrument, according to manufacturer's instructions. Each condition was run in duplicate, with the average of all four lots compared to the control (unstimulated) condition to calculate fold change. Error bars are +/−1 SEM. […] The combination of IFN-gamma with TNF-alpha produced the highest fold-change over control, with over 84-fold secretion of IL-1ra compared to control. IL-1ra binds to cell surface IL-1 receptors, blocking binding of pro-inflammatory IL-1alpha and IL-1beta. […] TNF-alpha combined with either IL-1alpha or IL-1beta increased IL-6 secretion by over 3300-fold compared to control. IL-6 attracts pro-inflammatory T cells and promotes demyelination. […] TNF-alpha combined with either IL-1alpha or IL-1beta increased IL-8 secretion by over 12,000-fold compared to control. IL-8/CXCL8 is secreted by astrocytes to attract pro-inflammatory immune cells after insults. This analyte also plays a role in recruitment and differentiation of oligodendrocyte precursor cells (OPCs) to promote remyelination. […] TNF-alpha alone, or combined with IL-1alpha, IL-1beta or IFN-gamma increased IL-10 secretion by over 1000-fold compared to control. IL-10 is secreted by astrocytes to reduce iNos activity and reduce astrogliosis. […] TNF-alpha alone, or combined with IL-1alpha, IL-1beta or IFN-gamma increased CCL5/RANTES secretion by over 2500-fold compared to control. CCL5/RANTES controls the movements of peripheral immune cells. […] TNF-alpha combined with IL-1alpha or IL-1beta increased CCL7 secretion by over 15,000-fold compared to control. CCL7 is important for astrocyte-microglia interactions and induces microglia activation. […] Stimulation with IL-1alpha or TNF-alpha alone increased CCL20 secretion by over 18-fold over unstimulated control. TNF-alpha combined with IL-1alpha, IL-1beta or IFN-gamma increased CCL20 secretion by over 100-fold compared to control. CCL20 is secreted by astrocytes in response to pro-inflammatory stimuli and attracts T-cells, B-cells and DCs. […] Stimulation with IL-1alpha increased CXCL1 secretion by 84-fold over unstimulated control. TNF-alpha combined with IL-1alpha or IL-1beta increased CXCL1 secretion by over 450-fold compared to control. CXCL1 is secreted by astrocytes to recruit neutrophils to the site of infection, and increases BBB permeability. […] CXCL2 activates CXCR2, found on oligodendrocytes and OPCs, which increases OPC proliferation and differentiation. […] CXCL5 is secreted by astrocytes in response to injury and activates microglia, resulting in decreased microglia phagocytosis and inhibition.
Astrocytes from four lots were thawed and cultured for 7 days in Astro 3 media, before stimulation in basal medium for 24 hours. Supernatant was collected and assayed using a custom Luminex assay from R&D on the FLEXMAP 3D instrument, according to manufacturer's instructions. […] The combination of IFN-gamma with TNF-alpha produced the highest fold-change over control, with over 84-fold secretion of IL-1ra compared to control. IL-1ra binds to cell surface IL-1 receptors, blocking binding of pro-inflammatory IL-1alpha and IL-1beta.

As to TNF-alpha, the “CCL7 secretion, fold change over unstimulated control” value was 1184 fold; the “IL-1ra secretion, fold change over unstimulated control” value (“IL-1ra secretion, fold change” for short) is reported as “three”; the “IL-8/CXCL8 secretion, fold change over unstimulated control” value is given as 898 fold.

B1: IL-1alpha: pro-inflammatory cytokine used to stimulate astrocytes (protein, UniProt P01583 113-271, looked up)
Interleukin-1 alpha: SAPFSFLSNVKYNFMRIIKYEFILNDALNQSIIRANDQYLTAAALHNLDEAVKFDMGAYKSSKDDAKITVILRISKTQLYVTAQDEDQPVLLKEMPEIPKTITGSETNLLFFWETHGTKNYFTSVAHPNLFIATKQDYWVCLAGGPPSITDFQILENQA
On to B1, for which the “CCL5/RANTES secretion, fold change over unstimulated control” value was found to be 156 fold; the “CCL7 secretion, fold change over unstimulated control” value is given as 2177 fold; the “CXCL1 secretion, fold change over unstimulated control” value is reported as 84 fold; the “CXCL2 secretion, fold change over unstimulated control” value is recorded as 379 fold. The “CXCL5 secretion, fold change over unstimulated control” value stood at 161 fold; the “IL-1ra secretion, fold change” value is given as “three”; the “IL-6 secretion, fold change over unstimulated control” value is “over 400 fold”; the “IL-8/CXCL8 secretion, fold change over unstimulated control” value is recorded as “over 3300 fold”. Besides, the “IL-10 secretion, fold change over unstimulated control” value was “over 415 fold”.

B2: IFN-gamma: cytokine used to stimulate astrocytes (protein, UniProt P01579 24-161, looked up)
Interferon gamma: QDPYVKEAENLKKYFNAGHSDVADNGTLFLGILKNWKEESDRKIMQSQIVSFYFKLFKNFKDDQSIQKSVETIKEDMNVKFFNSNKKKRDDFEKLTNYSVTDLNVQRKAIHELIQVMAELSPAAKTGKRKRSQMLFRG
On to B2, for which the “IL-1ra secretion, fold change” value is on record as “robust secretion”; the “IL-6 secretion, fold change over unstimulated control” value was found to be 32 fold; the “IL-10 secretion, fold change over unstimulated control” value was 161 fold.
